This assay addresses F10_Y11delinsLN mutant human γS-crystallin (human) (UniProt P22914).

Chain of human αA-crystallin (P02489 whole entry): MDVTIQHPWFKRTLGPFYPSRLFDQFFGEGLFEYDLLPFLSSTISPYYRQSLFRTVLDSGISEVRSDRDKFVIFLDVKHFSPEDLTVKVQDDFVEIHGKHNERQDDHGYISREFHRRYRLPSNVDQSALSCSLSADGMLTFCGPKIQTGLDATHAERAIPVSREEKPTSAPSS
Chain of F10_Y11delinsLN mutant human γS-crystallin (human) (P22914 other isoform, or with tags, fused parts or gaps mutant): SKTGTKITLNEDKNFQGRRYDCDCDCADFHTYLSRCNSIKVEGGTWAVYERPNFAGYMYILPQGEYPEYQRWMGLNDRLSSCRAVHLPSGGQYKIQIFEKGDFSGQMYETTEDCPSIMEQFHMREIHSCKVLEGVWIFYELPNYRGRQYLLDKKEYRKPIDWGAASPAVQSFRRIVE

For “human αA-crystallin (from UniProt P02489 1-173) (natural protein)”, the particle radius by dynamic light scattering, 30 to 60 °C; 1:1 molar ratio mixture (the mutant alone: 1063 nm radius after heating to 60 °C) was determined as 13.3 nm.

These data come from article PMC10531703.
